Assay results published in the Human Domainome abundance scans (Beltran et al. 2025).
± gives the uncertainty stated by the source.

B1: Nucleolar transcription factor 1, residues 408 to 469; numbered along this chain, P17480 (parent)
chain: KRPVSAMFIFSEEKRRQLQEERPELSESELTRLLARMWNDLSEKKKAKYKAREAALKAQSER

Variants of: B1
Assay: abundance fitness (aPCA) (normalised: wild type 0, dead -1); higher = more abundant; growth selection in yeast, the domain comes from the species named
Conditions: Homo sapiens

| Variant | abundance fitness |
| --- | --- |
| KRPVSAMFIFSEEKRRQLQEERPELSESELTRLLARMWNDLSEKKKAKYKAREAALKALSER [Q59L] | -0.054 ± 0.038 |
| KRPVSAMFIFSEEKRRQLQEERPELSESELTRLLARMWNDLSEKKKAKYKAREAALKATSER [Q59T] | -0.029 ± 0.05 |
| KRPVSAMFIFSEEKRRQLQEERPELSESELTRLLARMWNDLSEKKKAKYKAREAALKAHSER [Q59H] | -0.117 ± 0.14 |
| KRPVSAMFIFSEEKRRQLQEERPELSESELTRLLARMWNDLSEKKKAKYKAREAALKAFSER [Q59F] | -0.193 ± 0.1 |
| KRPVSAMFIFSEEKRRQLQEERPELSESELTRLLARMWNDLSEKKKAKYKAREAALKANSER [Q59N] | 0.028 ± 0.15 |
| KRPVSAMFIFSEEKRRQLQEERPELSESELTRLLARMWNDLSEKKKAKYKAREAALKAYSER [Q59Y] | -0.262 ± 0.1 |
| KRPVSAMFIFSEEKRRQLQEERPELSESELTRLLARMWNDLSEKKKAKYKAREAALKAVSER [Q59V] | -0.034 ± 0.051 |
| KRPVSAMFIFSEEKRRQLQEERPELSESELTRLLARMWNDLSEKKKAKYKAREAALKARSER [Q59R] | -0.027 ± 0.038 |
| KRPVSAMFIFSEEKRRQLQEERPELSESELTRLLARMWNDLSEKKKAKYKAREAALKACSER [Q59C] | -0.076 ± 0.098 |
| KRPVSAMFIFSEEKRRQLQEERPELSESELTRLLARMWNDLSEKKKAKYKAREAALKAWSER [Q59W] | -0.194 ± 0.065 |
| KRPVSAMFIFSEEKRRQLQEERPELSESELTRLLARMWNDLSEKKKAKYKAREAALKAPSER [Q59P] | -0.056 ± 0.075 |
| KRPVSAMFIFSEEKRRQLQEERPELSESELTRLLARMWNDLSEKKKAKYKAREAALKAASER [Q59A] | -0.062 ± 0.052 |
| KRPVSAMFIFSEEKRRQLQEERPELSESELTRLLARMWNDLSEKKKAKYKAREAALKAGSER [Q59G] | -0.063 ± 0.054 |
| KRPVSAMFIFSEEKRRQLQEERPELSESELTRLLARMWNDLSEKKKAKYKAREAALKAMSER [Q59M] | 0.011 ± 0.054 |
| KRPVSAMFIFSEEKRRQLQEERPELSESELTRLLARMWNDLSEKKKAKYKAREAALKAQSAR [E61A] | -0.059 ± 0.064 |
| KRPVSAMFIFSEEKRRQLQEERPELSESELTRLLARMWNDLSEKKKAKYKAREAALKAQSSR [E61S] | -0.045 ± 0.052 |
| KRPVSAMFIFSEEKRRQLQEERPELSESELTRLLARMWNDLSEKKKAKYKAREAALKAQSYR [E61Y] | -0.191 ± 0.2 |
| KRPVSAMFIFSEEKRRQLQEERPELSESELTRLLARMWNDLSEKKKAKYKAREAALKAQSMR [E61M] | 0.023 ± 0.11 |
| KRPVSAMFIFSEEKRRQLQEERPELSESELTRLLARMWNDLSEKKKAKYKAREAALKAQSGR [E61G] | -0.071 ± 0.046 |
| KRPVSAMFIFSEEKRRQLQEERPELSESELTRLLARMWNDLSEKKKAKYKAREAALKAQSRR [E61R] | -0.236 ± 0.13 |
| KRPVSAMFIFSEEKRRQLQEERPELSESELTRLLARMWNDLSEKKKAKYKAREAALKAQSDR [E61D] | -0.069 ± 0.11 |
| KRPVSAMFIFSEEKRRQLQEERPELSESELTRLLARMWNDLSEKKKAKYKAREAALKAQSWR [E61W] | -0.135 ± 0.071 |

| Variant | abundance fitness |
| --- | --- |
| KRPVSAMFIFSEEKRRQLQEERPELSESELTRLLARMWNDLSEKKKAKYKAREAALKAQSVR [E61V] | -0.069 ± 0.045 |
| KRPVSAMFIFSEEKRRQLQEERPELSESELTRLLARMWNDLSEKKKAKYKAREAALKAQSFR [E61F] | -0.129 ± 0.12 |
| KRPVSAMFIFSEEKRRQLQEERPELSESELTRLLARMWNDLSEKKKAKYKAREAALKAQSCR [E61C] | -0.073 ± 0.13 |
| KRPVSAMFIFSEEKRRQLQEERPELSESELTRLLARMWNDLSEKKKAKYKAREAALKAQSKR [E61K] | -0.093 ± 0.097 |
| KRPVSAMFIFSEEKRRQLQEERPELSESELTRLLARMWNDLSEKKKAKYKAREAALKAQSTR [E61T] | 0.003 ± 0.077 |
| KRPVSAMFIFSEEKRRQLQEERPELSESELTRLLARMWNDLSEKKKAKYKAREAALKYQSER [A58Y] | -0.173 ± 0.13 |
| KRPVSAMFIFSEEKRRQLQEERPELSESELTRLLARMWNDLSEKKKAKYKAREAALKAQVER [S60V] | -0.038 ± 0.059 |
| KRPVSAMFIFSEEKRRQLQEERPELSESELTRLLARMWNDLSEKKKAKYKAREAALKAQEER [S60E] | 0 ± 0.05 |
| KRPVSAMFIFSEEKRRQLQEERPELSESELTRLLARMWNDLSEKKKAKYKAREAALKAQFER [S60F] | 0.031 ± 0.069 |
| KRPVSAMFIFSEEKRRQLQEERPELSESELTRLLARMWNDLSEKKKAKYKAREAALKAQTER [S60T] | -0.037 ± 0.066 |
| KRPVSAMFIFSEEKRRQLQEERPELSESELTRLLARMWNDLSEKKKAKYKAREAALKAQIER [S60I] | -0.057 ± 0.11 |
| KRPVSAMFIFSEEKRRQLQEERPELSESELTRLLARMWNDLSEKKKAKYKAREAALKAQQER [S60Q] | -0.036 ± 0.065 |
| KRPVSAMFIFSEEKRRQLQEERPELSESELTRLLARMWNDLSEKKKAKYKAREAALKAQMER [S60M] | -0.113 ± 0.049 |
| KRPVSAMFIFSEEKRRQLQEERPELSESELTRLLARMWNDLSEKKKAKYKAREAALKAQLER [S60L] | -0.062 ± 0.05 |
| KRPVSAMFIFSEEKRRQLQEERPELSESELTRLLARMWNDLSEKKKAKYKAREAALKAQNER [S60N] | -0.06 ± 0.11 |
| KRPVSAMFIFSEEKRRQLQEERPELSESELTRLLARMWNDLSEKKKAKYKAREAALKAQAER [S60A] | -0.028 ± 0.046 |
| KRPVSAMFIFSEEKRRQLQEERPELSESELTRLLARMWNDLSEKKKAKYKAREAALKAQWER [S60W] | -0.049 ± 0.077 |
| KRPVSAMFIFSEEKRRQLQEERPELSESELTRLLARMWNDLSEKKKAKYKAREAALKAQCER [S60C] | -0.028 ± 0.077 |
| KRPVSAMFIFSEEKRRQLQEERPELSESELTRLLARMWNDLSEKKKAKYKAREAALKAQRER [S60R] | -0.059 ± 0.037 |
| KRPVSAMFIFSEEKRRQLQEERPELSESELTRLLARMWNDLSEKKKAKYKAREAALKAQGER [S60G] | 0.027 ± 0.04 |
| KRPVSAMFIFSEEKRRQLQEERPELSESELTRLLARMWNDLSEKKKAKYKAREAALKAQPER [S60P] | -0.006 ± 0.056 |
| KRPVSAMFIFSEEKRRQLQEERPELSESELTRLLARMWNDLSEKKKAKYKAREAALKAQHER [S60H] | -0.317 ± 0.18 |
